This note sets out measurements from US20100260668A1 (published 2010).

The test has as its target VEGF (VEGF 1-165 aa, R&D Systems 293-VE-010) (UniProt P15692 27-191). Description: Direct bind ELISA, VEGF coated on plate. (In general: In an ELISA, binding on a coated surface is turned into a signal by an enzyme label.)

As a reminder, the EC50 is the concentration needed to bring the measured effect to its halfway point. High values mean lower potency in that assay, low ones higher potency in that assay.
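Also: ELISA screening of antibodies for binding to the plate-coated target antigen.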

VEGF (VEGF 1-165 aa, R&D Systems 293-VE-010), sequence (P15692 other isoform, or with tags, fused parts or gaps limits assumed): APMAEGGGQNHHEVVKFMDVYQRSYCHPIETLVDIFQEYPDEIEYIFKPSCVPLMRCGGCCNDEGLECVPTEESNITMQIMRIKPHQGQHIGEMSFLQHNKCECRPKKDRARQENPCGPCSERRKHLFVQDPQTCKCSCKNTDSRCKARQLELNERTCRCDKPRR

B1: DVD451 (bispecific antibody, IgG1)
VH: QVQLVQSGAEVKKPGASVKISCKASGYSFTAYYIHWVKQAPGQGLEWIGYISSYNGATNYNQKFKGRVTFTTDTSTSTAYMELRSLRSDDTAVYYCARDYDYDVGMDYWGQGTLVTVSSASTKGPSVFPLAPEVQLVESGGGLVQPGGSLRLSCAASGFTINASWIHWVRQAPGKGLEWVGAIYPYSGYTNYADSVKGRFTISADTSKNTAYLQMNSLRAEDTAVYYCARWGHSTSPWAMDYWGQGTLVTVSS
VL: DIVMTQSPDSLAVSLGERATISCRASESVDNYGISFMKWFQQKPGQPPKLLIYAASNQGSGVPDRFSGSGSGTDFTLTISSLQAEDVAVYYCQQSKEVPWTFGGGTKVEIKRTVAAPSVFIFPPDIQMTQSPSSLSASVGDRVTITCRASQVIRRSLAWYQQKPGKAPKLLIYAASNLASGVPSRFSGSGSGTDFTLTISSLQPEDFATYYCQQSNTSPLTFGQGTKVEIKR
notes: DVD-Ig, outer AB069 / inner AB071; HC linker long, LC linker long; also called DVD451H; DVD451L
Take B1: the response was half-maximal at 2.4 µM (EC50). That is a single-digit micromolar value.

B2: DVD445 (bispecific antibody, IgG1)
VH: QVQLVQSGAEVKKPGASVKISCKASGYSFTAYYIHWVKQAPGQGLEWIGYISSYNGATNYNQKFKGRVTFTTDTSTSTAYMELRSLRSDDTAVYYCARDYDYDVGMDYWGQGTLVTVSSASTKGPEVQLVESGGGLVQPGGSLRLSCAASGFTINASWIHWVRQAPGKGLEWVGAIYPYSGYTNYADSVKGRFTISADTSKNTAYLQMNSLRAEDTAVYYCARWGHSTSPWAMDYWGQGTLVTVSS
VL: DIVMTQSPDSLAVSLGERATISCRASESVDNYGISFMKWFQQKPGQPPKLLIYAASNQGSGVPDRFSGSGSGTDFTLTISSLQAEDVAVYYCQQSKEVPWTFGGGTKVEIKRTVAAPDIQMTQSPSSLSASVGDRVTITCRASQVIRRSLAWYQQKPGKAPKLLIYAASNLASGVPSRFSGSGSGTDFTLTISSLQPEDFATYYCQQSNTSPLTFGQGTKVEIKR
notes: DVD-Ig, outer AB069 / inner AB071; HC linker short, LC linker short; also called DVD445H; DVD445L
The molecule B2 yielded an EC50 of 14.5 µM.

B3: DVD452 (bispecific antibody, IgG1)
VH: EVQLVESGGGLVQPGGSLRLSCAASGFTINASWIHWVRQAPGKGLEWVGAIYPYSGYTNYADSVKGRFTISADTSKNTAYLQMNSLRAEDTAVYYCARWGHSTSPWAMDYWGQGTLVTVSSASTKGPSVFPLAPQVQLVQSGAEVKKPGASVKISCKASGYSFTAYYIHWVKQAPGQGLEWIGYISSYNGATNYNQKFKGRVTFTTDTSTSTAYMELRSLRSDDTAVYYCARDYDYDVGMDYWGQGTLVTVSS
VL: DIQMTQSPSSLSASVGDRVTITCRASQVIRRSLAWYQQKPGKAPKLLIYAASNLASGVPSRFSGSGSGTDFTLTISSLQPEDFATYYCQQSNTSPLTFGQGTKVEIKRTVAAPSVFIFPPDIVMTQSPDSLAVSLGERATISCRASESVDNYGISFMKWFQQKPGQPPKLLIYAASNQGSGVPDRFSGSGSGTDFTLTISSLQAEDVAVYYCQQSKEVPWTFGGGTKVEIKR
notes: DVD-Ig, outer AB071 / inner AB069; HC linker long, LC linker long; also called DVD452H; DVD452L
For B3, the concentration for a half-maximal effect (EC50) was found to be 0.0178 µM.

B4: DVD446 (bispecific antibody, IgG1)
VH: EVQLVESGGGLVQPGGSLRLSCAASGFTINASWIHWVRQAPGKGLEWVGAIYPYSGYTNYADSVKGRFTISADTSKNTAYLQMNSLRAEDTAVYYCARWGHSTSPWAMDYWGQGTLVTVSSASTKGPQVQLVQSGAEVKKPGASVKISCKASGYSFTAYYIHWVKQAPGQGLEWIGYISSYNGATNYNQKFKGRVTFTTDTSTSTAYMELRSLRSDDTAVYYCARDYDYDVGMDYWGQGTLVTVSS
VL: DIQMTQSPSSLSASVGDRVTITCRASQVIRRSLAWYQQKPGKAPKLLIYAASNLASGVPSRFSGSGSGTDFTLTISSLQPEDFATYYCQQSNTSPLTFGQGTKVEIKRTVAAPDIVMTQSPDSLAVSLGERATISCRASESVDNYGISFMKWFQQKPGQPPKLLIYAASNQGSGVPDRFSGSGSGTDFTLTISSLQAEDVAVYYCQQSKEVPWTFGGGTKVEIKR
notes: DVD-Ig, outer AB071 / inner AB069; HC linker short, LC linker short; also called DVD446H; DVD446L
B4 gave a 50% effective concentration (EC50) of 0.0144 µM. This EC50 and that of the molecule before are within 1.5-fold of each other.
